Reference: patent US20220153839A1 (NBE THERAPEUTICS, published 2022)

Assays:
[1] = biological target: T1, twin strep-tagged human ROR2 extracellular domain (human, UniProt Q01974 34-403); experiment: ELISA on coated twin-strep tagged human ROR2; anti-human Fcγ F(ab')2-HRP; absorbance 490 nm
T1 construct: extracellular domain; Expressed in HEK293T; also called ROR2-ECD-TwinStrep
Method: Each well of a 96-well plate was coated with 100 μL of 2 μg/mL strep-tagged human ROR1 (from Example 5) in 0.1 M bicarbonate coating buffer (pH 9.6), and incubated for 12 h at 4° C. A second 96-well plate was likewise prepared with twin-strep tagged human ROR2 (from Example 5).
HRP-conjugated F(ab′)₂ anti-human FC-gamma (Jackson Immunoresearch, 109-036-008) was then added at a 1:20′000 dilution, 100 μl per well, and incubated for 1 h at 37° C. prior to detection using an Spark 10M plate reader (Tecan).

[2] = biological target: human ROR1, full length, on cells (human, UniProt Q01973 30-937); experiment: cell-based or functional assay
[3] = biological target: T2, StrepII-tagged human ROR1 extracellular domain (human, UniProt Q01973 30-406); experiment: SPR (Biacore T200), mAb captured by anti-human Fc-gamma IgG on CM5, ROR1-strep as analyte
T2 construct: extracellular domain; also called ROR1-strep; strep-tagged human ROR1

[4] = biological target: T2, StrepII-tagged human ROR1 extracellular …; experiment: SPR (Biacore T200); mAb captured by goat anti-human Fcγ IgG on CM5; ROR1-strep as analyte (Example 8)
Method: Affinity screening was then performed to select the best binders. Affinities were determined using a Biacore T200 instrument (GE Healthcare, Buckinghamshire, UK) and data was evaluated using Biacore Evaluation T200 V2.0 software. To capture mAbs, goat α-human Fc-gamma-specific IgG (Jackson ImmunoResearch, #109-005-098) was covalently immobilized on a CM5 chip (GE Healthcare, #BR-1005-30).

T2 sequence (Q01973 other isoform, or with tags, fused parts or gaps): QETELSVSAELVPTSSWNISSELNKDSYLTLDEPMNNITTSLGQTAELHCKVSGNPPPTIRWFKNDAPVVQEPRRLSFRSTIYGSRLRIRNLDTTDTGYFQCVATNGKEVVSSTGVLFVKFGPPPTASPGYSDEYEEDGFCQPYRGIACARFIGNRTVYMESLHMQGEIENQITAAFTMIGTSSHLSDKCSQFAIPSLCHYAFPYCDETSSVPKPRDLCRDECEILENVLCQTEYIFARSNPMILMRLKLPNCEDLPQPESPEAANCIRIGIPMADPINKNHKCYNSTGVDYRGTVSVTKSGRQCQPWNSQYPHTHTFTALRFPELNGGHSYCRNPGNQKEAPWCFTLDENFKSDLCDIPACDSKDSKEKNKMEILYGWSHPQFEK
T1 sequence (Q01974 34-403): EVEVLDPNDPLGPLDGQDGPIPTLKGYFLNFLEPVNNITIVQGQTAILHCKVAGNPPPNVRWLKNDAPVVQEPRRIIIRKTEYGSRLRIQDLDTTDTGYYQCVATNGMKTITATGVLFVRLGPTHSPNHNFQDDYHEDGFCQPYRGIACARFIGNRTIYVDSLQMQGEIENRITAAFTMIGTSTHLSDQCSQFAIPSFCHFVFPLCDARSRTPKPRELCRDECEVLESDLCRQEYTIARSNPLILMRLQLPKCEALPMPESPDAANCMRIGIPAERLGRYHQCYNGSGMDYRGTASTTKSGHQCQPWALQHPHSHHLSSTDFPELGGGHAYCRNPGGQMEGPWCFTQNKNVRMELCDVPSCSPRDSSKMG
human ROR1, full length, on cells, sequence (Q01973 30-937): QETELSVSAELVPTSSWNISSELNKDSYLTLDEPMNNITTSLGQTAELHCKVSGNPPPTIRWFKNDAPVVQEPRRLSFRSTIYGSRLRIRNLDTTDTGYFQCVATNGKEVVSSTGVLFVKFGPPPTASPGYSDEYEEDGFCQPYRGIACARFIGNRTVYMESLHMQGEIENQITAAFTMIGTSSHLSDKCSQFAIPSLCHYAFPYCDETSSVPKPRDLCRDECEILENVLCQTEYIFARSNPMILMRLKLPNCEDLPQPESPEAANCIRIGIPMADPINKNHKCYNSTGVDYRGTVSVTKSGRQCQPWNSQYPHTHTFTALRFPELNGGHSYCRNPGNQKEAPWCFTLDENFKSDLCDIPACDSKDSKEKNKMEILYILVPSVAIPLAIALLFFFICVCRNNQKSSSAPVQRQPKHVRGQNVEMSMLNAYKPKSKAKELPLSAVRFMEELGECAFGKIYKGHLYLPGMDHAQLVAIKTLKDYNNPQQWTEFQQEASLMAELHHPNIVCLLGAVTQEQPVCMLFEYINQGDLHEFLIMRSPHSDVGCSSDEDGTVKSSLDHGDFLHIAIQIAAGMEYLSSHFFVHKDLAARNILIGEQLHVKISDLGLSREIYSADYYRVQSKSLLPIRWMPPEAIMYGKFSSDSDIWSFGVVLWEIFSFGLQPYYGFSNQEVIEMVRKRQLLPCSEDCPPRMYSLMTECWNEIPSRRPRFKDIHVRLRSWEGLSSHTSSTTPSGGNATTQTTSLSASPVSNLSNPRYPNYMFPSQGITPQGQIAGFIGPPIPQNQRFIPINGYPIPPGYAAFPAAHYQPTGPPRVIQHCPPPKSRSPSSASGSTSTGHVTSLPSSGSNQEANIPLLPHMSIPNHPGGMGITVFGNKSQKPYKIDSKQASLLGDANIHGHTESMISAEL

| Binder | binding result [1] | Kd [3] [nM] | Kd [4] [nM] | koff [4] [s⁻¹] | kon [4] [M⁻¹ s⁻¹] | IC50 of in vitro cell killing, HS 578T cells (hROR1 status positive) [2] [µg/mL] | IC50 of in vitro cell killing, MDA-MD-468 cells (hROR1 status positive) [2] [µg/mL] |
| --- | --- | --- | --- | --- | --- | --- | --- |
| ERR1-Top43-G5-PNU (adc204) antibody drug conjugate (other, Gly5-EDA-PNU joined by sortase to the C-terminal G5SLPETG tag of the full light chain; Gly5-EDA-PNU joined by sortase to the C-terminal LPETG tag of the full heavy chain) VH: QSLEESGGRLVTPGTPLTLTCTVSGFSLSSYWMSWVRQAPGKGLEWIGAIYGSGNTYYASWAKGRFTISKTSTTVDLKITSPTTEDTATYFCARDVHSTATDLWGPGTLVTISS VL: SYELTQLPSVSVSLGQTARITCGGNNIGSKAVNWYQQKPGLAPGLLIYNDDERPSGVPDRFSGSNSGDTATLTISGAQAGDEADYYCQLWDSSAGAYVFGGGTQLTVTG |  |  |  |  |  | 0.707 | 0.143 |
| HuXBR1-402(15) (mAb290) (antibody, human IgG1, V domains shown, Humanized IgG (human IgG1 constant regions, lambda)) VH: QVQLQESGPGLVKPSETLSLTCTVSGFDISSYYMSWVRQPPGKGLEWIGAIGISGNAYYASWAKSRVTISRDTSKNQFSLKLSSVTAADTAVYYCARDHPTYGMDLWGPGTLVTVSS VL: SYELTQPPSVSVAPGKTARITCEGNNIGSKAVHWYQQKPGQAPVLVIYDDDERPSGIPERFSGSNSGNTATLTISRVEAGDEADYYCQVWDSSAYVFGGGTKLTVLG |  | 3.55 | 3.5 | 0.00394 | 1.11e+06 |  |  |
| HuXBR1-402(17) (mAb291) (antibody, human IgG1, V domains shown, Humanized IgG (human IgG1 constant regions, lambda)) VH: QVQLRESGPGLVKPSETLSLTCTVSGFDISSYYMSWVRQPPGKGLEWIGAIGISGNAYYASWAKSRVTISRDTSKNQFSLKLSSVTAADTAVYYCARDHPTYGMDLWGPGTLVTVSS VL: SYELTQPPSVSVAPGKTARITCEGNNIGSKAVHWYQQKPGQAPVLVIYDDDERPSGIPERFSGSNSGNTATLTISRVEAGDEADYYCQVWDSSAYVFGGGTKLTVLG |  | 3.34 | 3.4 | 0.00322 | 960000 |  |  |
| HuXBR1-402(19) (mAb295) (antibody, human IgG1, V domains shown, Humanized IgG (human IgG1 constant regions, lambda)) VH: QVQLQESGPGLVKPSETLSLTCTVSGFDISSYYMSWVRQPPGNGLEWIGAIGISGNAYYASWAKSRVTISRDTSKNQFSLKLSSVTAADTAVYYCARDHPTYGMDLWGPGTLVTVSS VL: SYELTQPPSVSVAPGKTARITCEGNNIGSKAVHWYQQKPGQAPVLVIYDDDERPSGIPERFSGSNSGNTATLTISRVEAGDEADYYCQVWDSSAYVFGGGTKLTVLG |  | 2.98 | 3 | 0.00332 | 1.11e+06 |  |  |
| HuXBR1-402(3) (mAb288) (antibody, human IgG1, V domains shown, Humanized IgG (human IgG1 constant regions, lambda)) VH: QVQLRESGPGLVKPSETLSLTCTVSGFDISSYYMSWVRQPPGKGLEWIGAIGISGNAYYASWAKSRVTISRDTSKNQFSLKLSSVTAADTAVYYCARDHPTYGMDLWGPGTLVTVSS VL: SYELTQPLSVSVALGQTARITCEGNNIGSKAVHWYQQKPGQAPVLVIYDDDERPSGIPERFSGSNSGNTATLTISRAQAGDEADYYCQVWDSSAYVFGGGTKLTVLG |  | 3.16 | 3.2 | 0.00375 | 1.19e+06 |  |  |
| HuXBR1-402(8) (mAb289) (antibody, human IgG1, V domains shown, Humanized IgG (human IgG1 constant regions, lambda)) VH: QVQLQESGPGLVKPSETLSLTCTVSGFDISSYYMSWVRQPPGKGLEWIGAIGISGNAYYASWAKSRVTISRDTSKNQFSLKLSSVTAADTAVYYCARDHPTYGMDLWGPGTLVTVSS VL: SYELTQPPSVSVSPGQTAIITCEGNNIGSKAVHWYQQKPGLSPVLVIYDDDERPSGIPERFSGSNSGNTATLTVSGTQDMDEADYYCQVWDSSAYVFGGGTKLTVLG |  | 2.14 | 2.1 | 0.00276 | 1.29e+06 |  |  |

More lines, main results first:

| binding result [1] | Kd [3] [nM] | Kd [4] [nM] | koff [4] [s⁻¹] | kon [4] [M⁻¹ s⁻¹] | Binder | IC50 of in vitro cell killing, HS 578T cells (hROR1 status positive) [2] [µg/mL] | IC50 of in vitro cell killing, MDA-MD-468 cells (hROR1 status positive) [2] [µg/mL] |
| --- | --- | --- | --- | --- | --- | --- | --- |
| no binding (tested: about 500 ng/ml) |  |  |  |  | ERR1-306 (mAb033) IgG with C-terminal sortase and Strep tags (antibody, V domains shown, Human IgG1 constant regions) VH: QEQLKESGGGLVQPGGSLKLSCKASGFDLSNYGVSWVRQAPGKGLEWIGYIDPTFDYTYYASWVNGRFSISRENTQNTVSLQINSLTPADTATYFCARWVYGVDDYGDGNWLDLWGQGTLVTISS VL: QFVLTQSPSVSAALGASAKLTCTLSSAHKTYTIDWYQQQQGEAPRYLMELKSDGSYTKGTGVPDRFSGSSSGADRYLIIPSVQADDEADYYCGTDYSGGYVFGGGTQLTVTG |  |  |
| no binding (tested: about 500 ng/ml) |  |  |  |  | XBR1-402 (mAb031) IgG with C-terminal sortase and Strep tags (antibody, V domains shown, Human IgH-gamma1 and IgL-lambda constant regions) VH: QEQQKESGGGLFKPTDTLTLTCTASGFDISSYYMSWVRQAPGNGLEWIGAIGISGNAYYASWAKSRSTITRNTNLNTVTLKMTSLTAADTATYFCARDHPTYGMDLWGPGTLVTVSS VL: SYELTQLPSVSVSLGQTARITCEGNNIGSKAVHWYQQKPGLAPGLLIYDDDERPSGVPDRFSGSNSGDTATLTISGAQAGDEADYYCQVWDSSAYVFGGGTQLTVTG |  |  |
| no binding (tested: about 500 ng/ml) |  |  |  |  | ERR1-403 (mAb035) IgG with C-terminal sortase and Strep tags (antibody, V domains shown, Human IgG1 constant regions) VH: QEQLKESGRGLVQPGGSLKLSCKASGFDFSGWYMTWVRQAPGKGLEWIGTIGTTKGRTYYASWVNGRFTISSNAQNTVDLQMNSLTAADRATYFCVRGSDYFDLWGPGTLVTISS VL: SYELTQLPSVSVSLGQTARITCGGNSIGSKAVNWYQQKPGLAPGLLIYDDDERPSGVPARFSGSNSGDTATLTISGAQAGDEADYYCQLWDSSAGAYVFGGGTQLTVTG |  |  |
| no binding (tested: about 500 ng/ml) |  |  |  |  | ERR1-Top43 (mAb036) IgG with C-terminal sortase and Strep tags (antibody, V domains shown, Human IgG1 constant regions) VH: QSLEESGGRLVTPGTPLTLTCTVSGFSLSSYWMSWVRQAPGKGLEWIGAIYGSGNTYYASWAKGRFTISKTSTTVDLKITSPTTEDTATYFCARDVHSTATDLWGPGTLVTISS VL: SYELTQLPSVSVSLGQTARITCGGNNIGSKAVNWYQQKPGLAPGLLIYNDDERPSGVPDRFSGSNSGDTATLTISGAQAGDEADYYCQLWDSSAGAYVFGGGTQLTVTG |  |  |
| no binding (tested: about 500 ng/ml) |  |  |  |  | ERR1-301 (mAb027) IgG with C-terminal sortase and Strep tags (antibody, V domains shown, Human IgG1 constant regions) VH: QEQLEESGGGLVTPGGSLTLTCTASGFTISTYHMSWVRQAPGKGLEWIGSIYAGSGSTYYASWVNGRFTISSNTTQNTVSLQMNSLTVADTATYFCARDHPSYGMDLWGPGTLVTVSS VL: SYELTQLPSVSVSLGQTARITCGGNSIGSKAVNWYQQKPGLAPGLLIYDDDERPSGVPDRFSASNSGDTATLTISGAQAEDEADYYCQLWDSSAVAYVFGGGTQLTVTG |  |  |
|  | 3.13 | 3.1 | 0.00328 | 1.05e+06 | HuXBR1-402(26) (mAb296) (antibody, human IgG1, V domains shown, Humanized IgG (human IgG1 constant regions, lambda)) VH: QVQLQESGPGLVKPSETLSLTCTVSGFDISSYYMSWVRQPPGNGLEWIGAIGISGNAYYASWAKSRVTISRDTSKNQFSLKLSSVTAADTAVYYCARDHPTYGMDLWGPGTLVTVSS VL: SYELTQPLSVSVALGQTARITCEGNNIGSKAVHWYQQKPGLAPVLVIYDDDERPSGIPERFSGSNSGNTATLTISRAQAGDEADYYCQVWDSSAYVFGGGTQLTVLG |  |  |
| no binding (tested: about 500 ng/ml) |  |  |  |  | ERR1-324 (mAb034) IgG with C-terminal sortase and Strep tags (antibody, V domains shown, Human IgG1 constant regions, kappa light chain) VH: QSLEESGGGLVQPGESLTLTCTVSGFSLSRNGMTWVRQAPGKGLEWIGIITSSGDKYYATWAKGRFTISKTSSTTVDLKMTSLTTEDTATYFCARGTVSSDIWGPGTLVTISS VL: ELVLTQTPSPVSAAVGGTVTINCQASQSVYGNNELAWYQQKPGQPPKLLIYRASILTSGVPSRFKGSGSGTQFTLTISNVQREDAATYYCLGGYVSQSYRAAFGGGTELEIL |  |  |
